Source: US20240189423A1 (University of California, published 2024)

B1: CXCL12-Bevacizumab (bispecific antibody, human IgG1, N297G)
chain: not shown
heavy: not shown
light: not shown
B2: CXCL12-Isotype (bispecific antibody, human IgG1, kappa, N297G)
chain: not shown
heavy: not shown
light: DIQMTQSPSSLSASVGDRVTITCRASQSVGSALAWYQQKPGKAPKLLIYSASSLYSGVPSRFSGSRSGTDFTLTISSLQPEDFATYYCQQSSYHHPITFGQGTKVEIKRTVAAPSVFIFPPSDSQLKSGTASVVCLLNNFYPREAKVQWKVDNALQSGNSQESVTEQDSKDSTYSLSSTLTLSKADYEKHKVYACEVTHQGLSSPVTKSF
notes: also called human CXCL12 isotype; isotype control of the CXCL12 bispecific

Key:
VEGF-647 = VEGF-647 (UniProt P15692-4 27-191, biotinylated, pre-incubated with streptavidin-647); assay: cell-based or functional assay
CXCR7 = target: T1, CXCR7 (human (endogenous on a human cancer …, UniProt P25106 1-362)); assay: flow cytometry on MDA-MB-231 cells known to express CXCR4 and CXCR7
T1 construct: whole, on cells; also called ACKR3

CXCR4 = target: T2, CXCR4 (human (endogenous on a human cancer …, UniProt P61073 1-352)); assay: as above
T2 construct: whole, on cells

mouse CXCR7 = target: T3, mouse CXCR7 (mouse, UniProt P56485 1-362); assay: flow cytometry on MC38 and CT26 mouse cells
T3 construct: whole, on cells; also called mouse CXCR7 receptors
T3 sequence (P56485 whole entry): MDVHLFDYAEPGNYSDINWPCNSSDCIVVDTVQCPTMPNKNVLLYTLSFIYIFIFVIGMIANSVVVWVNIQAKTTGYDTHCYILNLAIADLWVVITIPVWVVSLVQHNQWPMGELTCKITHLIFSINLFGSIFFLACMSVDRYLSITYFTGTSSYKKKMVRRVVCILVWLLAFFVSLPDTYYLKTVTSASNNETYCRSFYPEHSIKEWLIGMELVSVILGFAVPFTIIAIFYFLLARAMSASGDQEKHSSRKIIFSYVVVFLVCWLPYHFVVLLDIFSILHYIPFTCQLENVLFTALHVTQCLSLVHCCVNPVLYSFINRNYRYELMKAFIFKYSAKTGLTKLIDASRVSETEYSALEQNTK

Chain of VEGF-647 (P15692 other isoform, or with tags, fused parts or gaps limits assumed): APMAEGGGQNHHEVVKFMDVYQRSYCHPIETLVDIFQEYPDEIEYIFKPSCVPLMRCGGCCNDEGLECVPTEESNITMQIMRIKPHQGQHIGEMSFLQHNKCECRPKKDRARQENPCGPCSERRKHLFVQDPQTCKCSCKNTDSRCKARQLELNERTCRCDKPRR
T1 sequence (P25106 whole entry): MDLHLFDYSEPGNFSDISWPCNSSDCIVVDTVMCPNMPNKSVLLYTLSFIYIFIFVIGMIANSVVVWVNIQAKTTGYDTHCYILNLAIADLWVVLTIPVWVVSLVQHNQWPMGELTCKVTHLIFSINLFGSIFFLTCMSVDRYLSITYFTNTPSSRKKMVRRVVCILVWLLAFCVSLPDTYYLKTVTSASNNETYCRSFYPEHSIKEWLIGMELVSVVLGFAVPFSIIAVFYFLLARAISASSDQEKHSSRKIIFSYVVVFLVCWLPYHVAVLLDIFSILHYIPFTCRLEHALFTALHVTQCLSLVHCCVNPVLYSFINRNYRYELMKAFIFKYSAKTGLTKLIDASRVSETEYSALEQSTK
T2 sequence (P61073 whole entry): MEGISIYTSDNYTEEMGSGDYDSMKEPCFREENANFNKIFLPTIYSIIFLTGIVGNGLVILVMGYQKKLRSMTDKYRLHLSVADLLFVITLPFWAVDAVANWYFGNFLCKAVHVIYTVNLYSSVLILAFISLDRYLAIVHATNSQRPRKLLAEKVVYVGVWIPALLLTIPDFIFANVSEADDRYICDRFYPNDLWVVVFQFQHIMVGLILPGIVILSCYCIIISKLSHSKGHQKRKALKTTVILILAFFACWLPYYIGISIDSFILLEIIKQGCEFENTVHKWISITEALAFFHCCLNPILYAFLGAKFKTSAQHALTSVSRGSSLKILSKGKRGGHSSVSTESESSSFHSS

| Binder | fold increase in cellular fluorescence (VEGF-647 uptake), flow cytometry, HeLa cells, 24 hr (VEGF-647) | binding result (CXCR7) | binding result (CXCR4) | binding result (mouse CXCR7) |
| --- | --- | --- | --- | --- |
| B1 | 32 fold |  |  |  |
| B2 |  | binds | binds | binds |
